Test results as given in the RNAGym collection of RNA variant scans (doi:10.7554/elife.80360).

B1: Twister Ribozyme (parent)
chain: AACACUGCCAAUGCCGGUCCCAAGCCCGGAUAAAAGUGGAGGGGGCGG

Variants of: B1
Assay: self-cleavage, relative activity (ratio to wild type); higher = more cleavage; co-transcriptional

Q: For AACACUGCCAAUGCCGGGCCCAAGCCUGGAUAAAAGUGGAGGGGGCGG, which self-cleavage is on record?
A: 0.0822

Q: With AACACUGCCAAUGCCGGGCCCAAGCCCGGAUAAAAGUGGAGGGGGGGG as the variant, how does the self-cleavage read?
A: 0.0845

Q: Which self-cleavage does the source give for AACACUGCCAAUGCCGGGCCCAAGCCCGGAUAAAAGUGGAGGGGGUGG here?
A: 0.129

Q: For AACACUGCCAAUGCCGGGCCCAAUCCCGGAUAAAAGUGGAGGGGGCGG, which self-cleavage is on record?
A: 0.0765

Q: For AACACUGCCAAUGCCGGGCCCAAGCCCAGAUAAAAGUGGAGGGGGCGG, which self-cleavage is on record?
A: 0.0711

Q: Which self-cleavage does the source give for AACACUGCCAAUGCCGGGCCCAAGCCCCGAUAAAAGUGGAGGGGGCGG here?
A: 0.102

Q: With AACACUGCCAAUGCCGGGCCCAAGCCCGAAUAAAAGUGGAGGGGGCGG as the variant, how does the self-cleavage read?
A: 0.089

Q: With AACACUGCCAAUGCCGGGCCCAAGCCCGUAUAAAAGUGGAGGGGGCGG as the variant, how does the self-cleavage read?
A: 0.0942

Q: Which self-cleavage does the source give for AACACUGCCAAUGCCGGGCCCAAGCCCGGAUAAAAUUGGAGGGGGCGG here?
A: 0.083

Q: With AACACUGCCAAUGCCGGGCCCAAGCCCGGAUAAAAGUAGAGGGGGCGG as the variant, how does the self-cleavage read?
A: 0.0601

Q: With AACACUGCCAAUGCCGGGCCCAAGCCCGGAUAAAAGUGAAGGGGGCGG as the variant, how does the self-cleavage read?
A: 0.107

Q: For AACACUGCCAAUGCCGGGCCCAAGCCCGGAUAAAAGUGUAGGGGGCGG, which self-cleavage is on record?
A: 0.0734

Q: Which self-cleavage does the source give for AACACUGCCAAUGCCGGGCCCAAGCCCGGAUAAAAGUGGACGGGGCGG here?
A: 0.0434

Q: Which self-cleavage does the source give for AACACUGCCAAUGCCGGGCCCAAGCCCGGAUAAAAGUGGAGAGGGCGG here?
A: 0.0696

Q: Which self-cleavage does the source give for AACACUGCCAAUGCCGGGCCCAAGCCCGGAUAAAAGUGGAGCGGGCGG here?
A: 0.0775

Q: Which self-cleavage does the source give for AACACUGCCAAUGCCGGGCCCAAGCCCGGAUAAAAGUGGAGUGGGCGG here?
A: 0.0585

Q: Which self-cleavage does the source give for AACACUGCCAAUGCCGGGCCCAAGCCCGGAUAAAAGUGGAGGUGGCGG here?
A: 0.0664

Q: For AACACUGCCAAUGCCGGGCCCAAGCCCGGAUAAAAGUGGAGGGAGCGG, which self-cleavage is on record?
A: 0.0959

Q: Which self-cleavage does the source give for AACACUGCCAAUGCCGGGCCCAAGCCCGGAUAAAAGUGGAGGGGACGG here?
A: 0.0963

Q: Which self-cleavage does the source give for AACACUGCCAAUGCCGGGCCCAAGCCCGGAUAAAAGUGGAGGGGCCGG here?
A: 0.0995

Q: For AACACUGCCAAUGCCGGGCCCAAGCCCGGAUAAAAGUGGAGGGGUCGG, which self-cleavage is on record?
A: 0.0852

Q: For AACACUGCCAAUGCCGGGCCCAAGCCCGGAUAAAAGUGGAGGGGGCCG, which self-cleavage is on record?
A: 0.0806

Q: With AACACUGCCAAUGCCGGGCCCAAGCCCGGAUAAAAGUGGAGGGGGCGA as the variant, how does the self-cleavage read?
A: 0.0606

Q: Which self-cleavage does the source give for AACACUGCCAAUGCCGGGCCCAAGCCCGGAUAAAAGUGGAGGGGGCGC here?
A: 0.111

Q: For AACACUGCCAAUGCCGGGCCCAAGCCCGGAUAAAAGAGGAGGGGGCGG, which self-cleavage is on record?
A: 0.063

Q: With AACACUGCCAAUGCCGGGCCCAAGCCCGGAUAAAAGGGGAGGGGGCGG as the variant, how does the self-cleavage read?
A: 0.0758

Q: With AACACUGCCAAUGCCGGUACCAAGCCCGGAUAAAAGUGGAGGGGGCGG as the variant, how does the self-cleavage read?
A: 0.384

Q: Which self-cleavage does the source give for AACACUGCCAAUGCCGGUACCGAGCCCGGAUAAAAGUGGAGGGGGCGG here?
A: 0.0827

Q: For AACACUGCCAAUGCCGGUACCAGGCCCGGAUAAAAGUGGAGGGGGCGG, which self-cleavage is on record?
A: 0.0964

Q: With AACACUGCCAAUGCCGGUACCAUGCCCGGAUAAAAGUGGAGGGGGCGG as the variant, how does the self-cleavage read?
A: 0.114

Q: Which self-cleavage does the source give for AACACUGCCAAUGCCGGUACCAAGCCCGGCUAAAAGUGGAGGGGGCGG here?
A: 0.124

Q: For AACACUGCCAAUGCCGGUACCAAGCCCGGAUGAAAGUGGAGGGGGCGG, which self-cleavage is on record?
A: 0.177

Q: With AACACUGCCAAUGCCGGUACCAAGCCCGGAUAGAAGUGGAGGGGGCGG as the variant, how does the self-cleavage read?
A: 0.155

Q: With AACACUGCCAAUGCCGGUACCAAGCCCGGAUAACAGUGGAGGGGGCGG as the variant, how does the self-cleavage read?
A: 0.0755

Q: For AACACUGCCAAUGCCGGUACCAAGCCCGGAUAAGAGUGGAGGGGGCGG, which self-cleavage is on record?
A: 0.101

Q: With AACACUGCCAAUGCCGGUACCAAGCCCGGAUAAACGUGGAGGGGGCGG as the variant, how does the self-cleavage read?
A: 0.313

Q: For AACACUGCCAAUGCCGGUACCAAGCCCGGAUAAAUGUGGAGGGGGCGG, which self-cleavage is on record?
A: 0.29

Q: For AACACUGCCAAUGCCGGUACCAAGCCCGGAUAAAAGUGGGGGGGGCGG, which self-cleavage is on record?
A: 0.124

Q: Which self-cleavage does the source give for AACACUGCCAAUGCCGGUAACAAGCCCGGAUAAAAGUGGAGGGGGCGG here?
A: 0.0769

Q: For AACACUGCCAAUGCCGGUAGCAAGCCCGGAUAAAAGUGGAGGGGGCGG, which self-cleavage is on record?
A: 0.093

Q: For AACACUGCCAAUGCCGGUAUCAAGCCCGGAUAAAAGUGGAGGGGGCGG, which self-cleavage is on record?
A: 0.0818

Q: With AACACUGCCAAUGCCGGUACAAAGCCCGGAUAAAAGUGGAGGGGGCGG as the variant, how does the self-cleavage read?
A: 0.0702

Q: Which self-cleavage does the source give for AACACUGCCAAUGCCGGUACGAAGCCCGGAUAAAAGUGGAGGGGGCGG here?
A: 0.0812

Q: Which self-cleavage does the source give for AACACUGCCAAUGCCGGUACCAAGUCCGGAUAAAAGUGGAGGGGGCGG here?
A: 0.0834

Q: With AACACUGCCAAUGCCGGUACCAAGCACGGAUAAAAGUGGAGGGGGCGG as the variant, how does the self-cleavage read?
A: 0.0793

Q: Which self-cleavage does the source give for AACACUGCCAAUGCCGGUACCAAGCGCGGAUAAAAGUGGAGGGGGCGG here?
A: 0.0718

Q: For AACACUGCCAAUGCCGGUACCAAGCCUGGAUAAAAGUGGAGGGGGCGG, which self-cleavage is on record?
A: 0.0993

Q: For AACACUGCCAAUGCCGGUACCAAGCCCGGAUAAAAGUGGAGGGGGGGG, which self-cleavage is on record?
A: 0.177

Q: Which self-cleavage does the source give for AACACUGCCAAUGCCGGUACCAAGCCCGGAUAAAAGUGGAGGGGGUGG here?
A: 0.304

Q: For AACACUGCCAAUGCCGGUACCAACCCCGGAUAAAAGUGGAGGGGGCGG, which self-cleavage is on record?
A: 0.0773

Q: For AACACUGCCAAUGCCGGUACCAAGCCCAGAUAAAAGUGGAGGGGGCGG, which self-cleavage is on record?
A: 0.184

Q: Which self-cleavage does the source give for AACACUGCCAAUGCCGGUACCAAGCCCCGAUAAAAGUGGAGGGGGCGG here?
A: 0.135

Q: For AACACUGCCAAUGCCGGUACCAAGCCCGCAUAAAAGUGGAGGGGGCGG, which self-cleavage is on record?
A: 0.0998

Q: For AACACUGCCAAUGCCGGUACCAAGCCCGUAUAAAAGUGGAGGGGGCGG, which self-cleavage is on record?
A: 0.207
